Results: patent WO2016002189A1 (dated 2016)

Tests used:
proglucagon = molecular target: T1, proglucagon (Homo sapiens (Human), UniProt P01275 21-180); assay: epitope assay (chemiluminescent immunoassay)
T1 construct: Native protein in culture supernatants or HPLC fractions of human duodenal cancer cell lines, not purified recombinant protein; also called proglucagon protein

[1] = molecular target: T2, peptide consisting of amino acid residues 111 to 144 of proglucagon; assay: ELISA screening of hybridomas against the proglucagon peptides
T2 construct: Synthetic peptide; also called proglucagon (111-144); proglucagon 111-144 antigen
T2 peptide: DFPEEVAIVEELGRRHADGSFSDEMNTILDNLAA

[2] = molecular target: T3, human glucagon (manufactured by Yanaihara Laboratories) (human, UniProt P01275 53-81); assay: competitive ELISA with biotinylated proglucagon (111-144) as labelled antigen
T3 construct: Glucagon is only the 29-residue hormone cut from it

[3] = molecular target: T4, human GLP-1 (manufactured by Yanaihara Laboratories) (human, UniProt P01275 98-127, limits assumed); assay: as above
T4 construct: also called glucagon-like peptide-1
T4 peptide (looked up): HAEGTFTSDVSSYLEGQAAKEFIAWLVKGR

[4] = molecular target: T5, human GLP-2 (manufactured by Yanaihara Laboratories) (human, UniProt P01275 146-178); assay: as above
T5 construct: also called glucagon-like peptide-2
T5 peptide (looked up): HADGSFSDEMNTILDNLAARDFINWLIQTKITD

T1 sequence (P01275 21-180): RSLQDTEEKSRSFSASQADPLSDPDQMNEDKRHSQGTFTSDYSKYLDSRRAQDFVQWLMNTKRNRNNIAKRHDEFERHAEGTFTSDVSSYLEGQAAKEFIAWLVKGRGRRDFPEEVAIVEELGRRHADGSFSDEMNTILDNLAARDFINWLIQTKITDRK
T3 sequence (P01275 53-81): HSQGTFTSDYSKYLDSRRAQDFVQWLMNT

B1: SCC-MGD-913Ab (antibody, V domains shown)
VH: DVKLVESGGGLVKPGGSLKLSCAASGFTFSSFAMTWVRQTPEKRLEWVATISNGGSYTYYPDSVKGRFTISRDNAKNTLYLQMSSLRSEDTAMYYCTRDGAGKGFPLDYWGQGTTLTVSS
VL: NILLTQSPSSLAVSAGEKVTMSCKSSQSVFYSSNQKNYLAWYQQKPGQSPKLLIYWASTRESGVPDRFTGSGSGTDFTLTISSVQAEDLAIYYCHQYFSSLTFGAGTKLELK
notes: Mouse hybridoma monoclonal from immunisation with the proglucagon 111-144 peptide
B1: binds (proglucagon); binds [1]; no binding [2]. B1: no binding [3]; no binding [4].
